Assay results taken from paper PMC10397247.

Legend:
4H346-bA = biological target: T1, 4H346-bA; assay: two-hybrid library CCNG1;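 note: natural log of median RNA to DNA barcode read ratio; higher means stronger binding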
T1 chain: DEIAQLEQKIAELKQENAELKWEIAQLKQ

4H3926-bA = biological target: T2, 4H3926-bA; assay: two-hybrid library CCNG1;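 note: natural log of median RNA to DNA barcode read ratio; higher means stronger binding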
T2 chain: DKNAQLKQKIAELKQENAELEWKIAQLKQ

4H4073-bA = biological target: T3, 4H4073-bA; assay: two-hybrid library CCNG1;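 note: natural log of median RNA to DNA barcode read ratio; higher means stronger binding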
T3 chain: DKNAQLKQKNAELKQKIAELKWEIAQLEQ

4H457-bA = biological target: T4, 4H457-bA; assay: two-hybrid library CCNG1;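 note: natural log of median RNA to DNA barcode read ratio; higher means stronger binding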
T4 chain: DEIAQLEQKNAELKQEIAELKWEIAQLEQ

4H575-bA = biological target: T5, 4H575-bA; assay: two-hybrid library CCNG1;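 note: natural log of median RNA to DNA barcode read ratio; higher means stronger binding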
T5 chain: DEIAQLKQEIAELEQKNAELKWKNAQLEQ

4H683-bA = biological target: T6, 4H683-bA; assay: two-hybrid library CCNG1;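 note: natural log of median RNA to DNA barcode read ratio; higher means stronger binding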
T6 chain: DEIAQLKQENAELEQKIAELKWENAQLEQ

4H754-bA = biological target: T7, 4H754-bA; assay: two-hybrid library CCNG1
T7 chain: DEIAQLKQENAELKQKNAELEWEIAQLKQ

4H780-bA = biological target: T8, 4H780-bA; assay: two-hybrid library CCNG1
T8 chain: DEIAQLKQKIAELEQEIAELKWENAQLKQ

4H797-bA = biological target: T9, 4H797-bA; assay: two-hybrid library CCNG1
T9 chain: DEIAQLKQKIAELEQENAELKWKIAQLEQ

4H855-bA = biological target: T10, 4H855-bA; assay: two-hybrid library CCNG1
T10 chain: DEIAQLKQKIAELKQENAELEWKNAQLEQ

4H918-bA = biological target: T11, 4H918-bA; assay: two-hybrid library CCNG1
T11 chain: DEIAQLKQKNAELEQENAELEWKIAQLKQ

4H953-bA = biological target: T12, 4H953-bA; assay: two-hybrid library CCNG1
T12 chain: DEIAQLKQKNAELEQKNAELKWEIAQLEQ

4H968-bA = biological target: T13, 4H968-bA; assay: two-hybrid library CCNG1
T13 chain: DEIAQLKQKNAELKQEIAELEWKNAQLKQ

4H3705-AA = biological target: T14, 4H3705-AA; assay: two-hybrid library CCmax
T14 chain: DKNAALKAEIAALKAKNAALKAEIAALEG

4H3782-AA = biological target: T15, 4H3782-AA; assay: two-hybrid library CCmax; conditions: mean of both orientations
T15 chain: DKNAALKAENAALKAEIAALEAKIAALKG

4H465-AA = biological target: T16, 4H465-AA; assay: two-hybrid library CCmax; conditions: mean of both orientations
T16 chain: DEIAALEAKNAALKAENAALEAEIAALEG

4H486-AA = biological target: T17, 4H486-AA; assay: two-hybrid library CCmax; conditions: mean of both orientations
T17 chain: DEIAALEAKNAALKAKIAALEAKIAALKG

4H535-AA = biological target: T18, 4H535-AA; assay: two-hybrid library CCmax; conditions: mean of both orientations
T18 chain: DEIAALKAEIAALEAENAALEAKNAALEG

4H58-AA = biological target: T19, 4H58-AA; assay: two-hybrid library CCmax; conditions: mean of both orientations
T19 chain: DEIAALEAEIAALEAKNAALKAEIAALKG

4H895-AA = biological target: T20, 4H895-AA; assay: two-hybrid library CCmax; conditions: mean of both orientations
T20 chain: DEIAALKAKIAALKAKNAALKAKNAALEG

4H_APH = biological target: T21, 4H_APH; assay: two-hybrid library CCmax; conditions: mean of both orientations
T21 chain: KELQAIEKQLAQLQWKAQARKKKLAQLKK

4H_BCR = biological target: T22, 4H_BCR; assay: two-hybrid library CCmax; conditions: mean of both orientations
T22 chain: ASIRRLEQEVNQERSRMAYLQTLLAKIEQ

4H_GCN4 = assay: two-hybrid library CCmax; conditions: mean of both orientations
Chain of 4H_GCN4 (chain, as listed by the source): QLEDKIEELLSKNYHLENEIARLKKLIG

GCN2_T = assay: two-hybrid library CCmax
4H370-bH = biological target: T23, 4H370-bH; assay: two-hybrid library CCNG1
T23 chain: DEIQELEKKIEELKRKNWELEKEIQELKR

4H3782-bH = biological target: T24, 4H3782-bH; assay: two-hybrid library CCNG1
T24 chain: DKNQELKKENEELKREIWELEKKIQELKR

4H3843-bH = biological target: T25, 4H3843-bH; assay: two-hybrid library CCNG1
T25 chain: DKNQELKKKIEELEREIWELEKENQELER

4H4001-bH = biological target: T26, 4H4001-bH; assay: two-hybrid library CCNG1
T26 chain: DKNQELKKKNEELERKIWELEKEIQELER

4H462-bH = biological target: T27, 4H462-bH; assay: two-hybrid library CCNG1
T27 chain: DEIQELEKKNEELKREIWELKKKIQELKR

4H568-bH = biological target: T28, 4H568-bH; assay: two-hybrid library CCNG1
T28 chain: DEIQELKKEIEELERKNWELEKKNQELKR

4H607-bH = biological target: T29, 4H607-bH; assay: two-hybrid library CCNG1
T29 chain: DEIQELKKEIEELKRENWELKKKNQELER

4H687-bA = biological target: T30, 4H687-bA; assay: two-hybrid library CCNG1
T30 chain: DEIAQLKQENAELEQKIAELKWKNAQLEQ

4H687-bH = biological target: T31, 4H687-bH; assay: two-hybrid library CCNG1
T31 chain: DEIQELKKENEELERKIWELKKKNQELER

4H72-bH = biological target: T32, 4H72-bH; assay: two-hybrid library CCNG1
T32 chain: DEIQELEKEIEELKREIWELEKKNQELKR

4H797-bH = biological target: T33, 4H797-bH; assay: two-hybrid library CCNG1
T33 chain: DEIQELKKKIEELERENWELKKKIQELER

4H883-bH = biological target: T34, 4H883-bH; assay: two-hybrid library CCNG1
T34 chain: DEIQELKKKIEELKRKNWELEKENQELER

4H918-bH = biological target: T35, 4H918-bH; assay: two-hybrid library CCNG1
T35 chain: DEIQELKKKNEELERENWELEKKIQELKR

4H953-bH = biological target: T36, 4H953-bH; assay: two-hybrid library CCNG1
T36 chain: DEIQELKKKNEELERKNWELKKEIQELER

4H967-bH = biological target: T37, 4H967-bH; assay: two-hybrid library CCNG1
T37 chain: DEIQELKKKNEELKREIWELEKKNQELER

O5-bP = biological target: T38, O5-bP; assay: two-hybrid library CCNG1
T38 chain: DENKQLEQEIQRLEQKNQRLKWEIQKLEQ

O6-bP = biological target: T39, O6-bP; assay: two-hybrid library CCNG1
T39 chain: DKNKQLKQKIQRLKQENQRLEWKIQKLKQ

O7-bP = biological target: T40, O7-bP; assay: two-hybrid library CCNG1
T40 chain: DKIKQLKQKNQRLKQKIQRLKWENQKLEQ

O8-bP = biological target: T41, O8-bP; assay: two-hybrid library CCNG1
T41 chain: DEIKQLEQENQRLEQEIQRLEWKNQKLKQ

O9-bP = biological target: T42, O9-bP; assay: two-hybrid library CCNG1
T42 chain: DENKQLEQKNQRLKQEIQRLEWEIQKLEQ

O7 = biological target: T43, O7; assay: two-hybrid library CC0; conditions: mean of both orientations
T43 chain: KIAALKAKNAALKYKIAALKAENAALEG

O8 = biological target: T44, O8; assay: two-hybrid library CC0; conditions: mean of both orientations
T44 chain: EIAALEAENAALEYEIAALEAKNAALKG

O9 = biological target: T45, O9; assay: two-hybrid library CC0; conditions: mean of both orientations
T45 chain: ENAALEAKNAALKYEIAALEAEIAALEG

4H3297-bH = biological target: T46, 4H3297-bH; assay: two-hybrid library CCNG1
T46 chain: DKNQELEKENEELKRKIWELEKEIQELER

4H3364-bH = biological target: T47, 4H3364-bH; assay: two-hybrid library CCNG1
T47 chain: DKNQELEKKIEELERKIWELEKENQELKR

4H3381-bH = biological target: T48, 4H3381-bH; assay: two-hybrid library CCNG1
T48 chain: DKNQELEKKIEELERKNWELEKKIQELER

4H349-bH = biological target: T49, 4H349-bH; assay: two-hybrid library CCNG1
T49 chain: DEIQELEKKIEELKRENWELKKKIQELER

4H56-bH = biological target: T50, 4H56-bH; assay: two-hybrid library CCNG1
T50 chain: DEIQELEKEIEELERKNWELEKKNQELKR

4H730-bH = biological target: T51, 4H730-bH; assay: two-hybrid library CCNG1
T51 chain: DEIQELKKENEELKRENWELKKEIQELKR

4H796-bH = biological target: T52, 4H796-bH; assay: two-hybrid library CCNG1
T52 chain: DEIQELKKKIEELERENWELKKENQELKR

4H932-bH = biological target: T53, 4H932-bH; assay: two-hybrid library CCNG1
T53 chain: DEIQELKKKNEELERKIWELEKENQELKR

4H949-bH = biological target: T54, 4H949-bH; assay: two-hybrid library CCNG1
T54 chain: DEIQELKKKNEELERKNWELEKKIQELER

O7-bS = biological target: T55, O7-bS; assay: two-hybrid library CCNG1
T55 chain: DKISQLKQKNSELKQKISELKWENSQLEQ

O8-bS = biological target: T56, O8-bS; assay: two-hybrid library CCNG1
T56 chain: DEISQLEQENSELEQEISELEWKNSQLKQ

O9-bS = biological target: T57, O9-bS; assay: two-hybrid library CCNG1
T57 chain: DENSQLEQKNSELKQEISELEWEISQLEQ

## DEIAQLEQKIAELKQENAELKWEIAQLKQ [4H346-bA]
4H346-bA
  interaction score: 1.48
4H3926-bA
  interaction score: 1.57
4H4073-bA
  interaction score: -0.388
4H457-bA
  interaction score: -0.833
4H575-bA
  interaction score: -0.114
4H683-bA
  interaction score: 0.357
4H754-bA
  interaction score: -0.388
4H780-bA
  interaction score: -0.692
4H797-bA
  interaction score: -0.562
4H855-bA
  interaction score: 0.0345
4H918-bA
  interaction score: -0.428
4H953-bA
  interaction score: -1.6
4H968-bA
  interaction score: -0.648

## DKNAALKAEIAALKAKNAALKAEIAALEG [4H3705-AA]
4H3705-AA
  interaction score: -1.2
4H3782-AA
  interaction score: -1.26
4H465-AA
  interaction score: -1.21
4H486-AA
  interaction score: -1.65
4H535-AA
  interaction score: -0.26
4H58-AA
  interaction score: 0.517
4H895-AA
  interaction score: -1.78
4H_APH
  interaction score: -2.68
4H_BCR
  interaction score: -1.43
4H_GCN4
  interaction score: -1.4
GCN2_T
  interaction score: -1.92

## DEIQELEKKIEELKRKNWELEKEIQELKR [4H370-bH]
4H370-bH
  interaction score: 0.649
4H3782-bH
  interaction score: 0.858
4H3843-bH
  interaction score: 0.946
4H4001-bH
  interaction score: 0.0634
4H462-bH
  interaction score: 0.842
4H568-bH
  interaction score: 0.618
4H607-bH
  interaction score: -0.999
4H687-bA
  interaction score: 0.534
4H687-bH
  interaction score: -1.39
4H72-bH
  interaction score: -0.56
4H797-bH
  interaction score: 0.396
4H883-bH
  interaction score: -0.56
4H918-bH
  interaction score: -0.0355
4H953-bH
  interaction score: 0.739
4H967-bH
  interaction score: 0.239

## DENKQLEQEIQRLEQKNQRLKWEIQKLEQ [O5-bP]
O5-bP
  interaction score: -1.57
O6-bP
  interaction score: 2.35
O7-bP
  interaction score: -1.28
O8-bP
  interaction score: -0.837
O9-bP
  interaction score: -1.33

## KIAALKAKNAALKYKIAALKAENAALEG [O7]
O7
  interaction score: -2.81
O8
  interaction score: 1.47
O9
  interaction score: -2.77

## DKNQELEKENEELKRKIWELEKEIQELER [4H3297-bH]
4H3297-bH
  interaction score: 0.885
4H3364-bH
  interaction score: -0.362
4H3381-bH
  interaction score: -0.113
4H349-bH
  interaction score: -0.0353
4H370-bH
  interaction score: 0.804
4H56-bH
  interaction score: -1.32
4H730-bH
  interaction score: -0.0968
4H796-bH
  interaction score: -0.673
4H932-bH
  interaction score: -0.844
4H949-bH
  interaction score: -1.66

## DKISQLKQKNSELKQKISELKWENSQLEQ [O7-bS]
O7-bS
  interaction score: -1.01
O8-bS
  interaction score: 0.93
O9-bS
  interaction score: -1.07

## DKIKQLKQKNQRLKQKIQRLKWENQKLEQ [O7-bP]
O7-bP
  interaction score: -1.43
O8-bP
  interaction score: 1.3
O9-bP
  interaction score: -1.09

## DKNKQLKQKIQRLKQENQRLEWKIQKLKQ [O6-bP]
O6-bP
  interaction score: -0.702
O7-bP
  interaction score: -0.618
O8-bP
  interaction score: -2.38
O9-bP
  interaction score: -0.21
